# Test results published in the nanobody polyreactivity screen of Harvey et al. (2022).
# Test: yeast display, Sf9 membrane polyspecificity reagent, FACS + sequencing; frameworks hold sequencing errors
# Outline: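 Galactose induction of a Saccharomyces cerevisiae BJ5465 synthetic nanobody display library ran 36–48 hours. The cells were then stained for 1 hour at 4 °C with 10% biotinylated, detergent-solubilized Sf9 membrane reagent, pulled down on streptavidin microbeads and FACS-sorted into low and high (top ~1%) gates on expression and reagent-binding fluorescence. Labels for polyreactivity follow the gate of origin.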
row,Sequence,polyreactivity (PSR sort gate)
1,QVQLVESGGGLVQAGGSLRLSCAASGYTFGTYDMGWYRQAPGKERELVAAISIGGSTNYADSVKGRFTISRDNAKNTVYLQKNSLKPEDTAVYYCAAEVNVGTLLLSVIVEDGDYWGQGTQVTVSS,low polyreactivity
2,EEELVESGGGLVQAGGSLRLSCAASGRTFVYNAMGWYRQAPGKERELVATITRGVSTNYADSVKGRFTISRDNAKNTVYLQMNSLKPEDTAVYYFAAVWYYQFGVWGYYWGQGTQVTVSS,low polyreactivity
3,QVQLVESGGGLVQAGGSLRLSCAASGRIFLWNAMGWYRQAPGKERELVAAISWSGGSTYYADSVKGRFTISRDNAKNTVYLQMNSLKPEDTAVYYCNRLLSLEYGYWGQGTQVTVSS,high polyreactivity
4,QVQLVESGGGLVQAGGSLRLSCAASGLIFQYYAMGWYRQAPGKERELVAGITSGANTNYADSVKGRFTISRDNAKNTVYLQMNSLKPEDTAVYYCATYVSSPYSDIWFKDFDYWGQGTQVTVSS,low polyreactivity
5,QDQLVESGGGLVQAGGSLRLSCAASGSTFNAYAMGWYRQAPGKERELVADISISGGTYYADSVKGRFTISRDNAKNTVYLQMNSLKPEDTAVYYCAAKPSWHGVYYWGQGTQVTVSS,low polyreactivity
6,QVQLVESGGGLVQAGGSLRLSCAASGRTFRYYDMGWYRQAPGKERELVAAITSRGGSTYYADSVKGRFTISRDNAKNTVYLQMNSLIPEDTAVYDCNAYPVQIFYLGNRQYNYWGHGTQVTVSS,high polyreactivity
7,QVQLVESGGGLVQAGGSLRLSCAASGRIFYVYAMGWSRQAPGKERELVAAITSGGRTYYADSVKGRFTISRDNAKNTVYLQMNSLKPEDTAVYYCAARASSYNYWGQGTQVTVSS,high polyreactivity
8,QVQLVESGGGLVQAGGSLRLSCDASGSIFYRNVMGWYRQAPGKERELVAAISGRGGSTYYADSVKGRFTISRDNAKNTVYLQMNSLKPEDTAVYYCAADKGYRYISYYYWGQGTQVTVSS,high polyreactivity
9,QVQLVESGGGLVQAGGSLRLSCAPSGSTSFSNDMGWYRQAPGKERELVAAIRSGGSTDYADSVKGRFTISRDNAKNTVYLQMNSLKPEDTEVYYFNATQYDAVYPGYARLYDYWGQGTQVTVSS,low polyreactivity
10,QVQLVESGGGLVQAGGSLRLSCAASGSIFGTNAMGRYRPAPGKERELVAAISWSGTSTYYADSVKGRFTISRDNAKNTVYLQMNSLKPEDTAVYYCAKRSGYSRGFYYWGQGTQVTVSS,high polyreactivity
11,QVQLVESGGGLVQAGGSLRLSCAASGIIFVENAMGWYRQAPGKERELVASGDSTYYADSVKGRFTISRDNAKNTVYLQMNSLKPEDTAVYYCAVDHYSARLLARYDYWGQGTQVTVSS,low polyreactivity
12,QVQLVESGGGLLQAGGSLRLSCAASGFIFRRYTLGWYRQAPGKERELVAAITSSGARTYYADSVKGRFTISRDNAKNTVYLQMTSLKPEDTAVYYCYTSYRKKKRYYYWGQGTQVTVSS,high polyreactivity
13,QVQLVESGGGLVQAGGSLRLSCAASGLTFVWYGKGWYRQATGKERELVAAITRGGSTYYADSVKGRFTISRDNAKNTVYLQMKSLKPEDTAVYYCAARRLERRVRPGYYPYDYWVQGTQVTVSS,high polyreactivity
14,QVQLVESGGGLVQAGGSLRLSCAASGFIFGRYTMGWYRQAPGKERELVAAISGSDVSTYYADSVKGRFTISRDNAKITVYLQMNRLKPEDTAVYYCAADAPWAYYEYDYWGQGTQVTVSS,low polyreactivity
15,QVQLVESGGGLVQAGGSRRLSCAASGRIFGWYAMGWYRQAPGKERELVAAISRGGTRTNYADSVKGRFTISRDNAKNTGYLKMNSLKPEDTAVYYCASESFYSQFDYWGQGSQVTVSS,high polyreactivity
16,QVQLVESCGGLVQAGGSLRLSFAASGSTFGYYTMGWYRQAPGKERELVAAISWSGGSTYYADSVKGRFTISRDNAKNTVYLQMNSLKPEDTAVYFCAALGYTYKYYSYYWGQGTQVTVSS,high polyreactivity

row,Sequence,polyreactivity (PSR sort gate)
1,QVQLVESGGGLVQAGGSLRLSCAASGSIFKFNTMGWYRQAPGNERELVAAITRVGSTYYADSVKGRFTISRDNAKNTVYLQMNSLKPEDTAVYYCAVRQRDKFAGGRNDYWGQGTQVTVSS,high polyreactivity
2,QVQLVESGGGLVQAGGSLRLSCAASGYIFKSNVMGWYRQAPGKERELVAAISWSGGRTYYADSVKGRFTISRDNAKNTVYFQRNSLKPEDTAVYYCAAVGRQSNYYVDYDYWGQGTQVTVSS,high polyreactivity
3,QVQLVESGGGLVQAGGSLRLSCAASGRTFYPYAMGWYRQAPGKEREFVAAIRWRGGSTRYADSVKGRFTISRDNAKNTVYLQMNSLKPEDTAVYYCAADLRLGLNYYYWGQGTQVTVSS,high polyreactivity
4,QVQLVESGGGLVQAGGSLRLTCAASGSTFSANAMGWYRPGPGKERELVAGISRSGGRTYYADSVKGRFTISRDNAKNTVYLQMNSLKPEDTAVYFCNDRRRGAGGYDYWGQGTQVTVSS,high polyreactivity
5,QVQLVESGGCLVQAGGSLRLSCAASGSTIYAMGWYRQAPGKERELVAGINRSGTRTYYADSVKGRFTISRDNAKNTVYLQMNSLKPEDTAVYYCAALVYRPTYGYIFDYWGQGTQVTVSS,high polyreactivity
6,QDQLVDSGGGLVQAGGSLRLSCAASGRIFTINAMGWYRQAPGKERELVAAITYSGGSTYADSVKGRFTISRDNAKNTVYLQMNSLKPEDTAVYYCNAKLTWSRRYVRYNYWGQGTQVTVSS,high polyreactivity
7,QVQLVESGGGLVQAGGSLRLSCAASGSTLSDNAMGWYRQAPGKERELVARISGDGSTNYADSVKGRFTISRDNAKNTVYLQMNSLKPDDTAVYYCNAGTAGIYYYGKSDYWGQGTQVTVSS,low polyreactivity
8,QVQLVESGGGLVQAGGSLRLSCAASGSIFPTNAMGWYRQAPGKERELVAAISRGDSTYYADSVKGRFTISRDNAKNTVYLQMNSLKPEDTAVYYCAARRSRTLWSPFYYWGQGTQVTVSS,low polyreactivity
9,QVQLVESGGGLVQEGGSLRLSCAASGLTFSPYAMGWYRQAPGKERELVATITIGGSTKYADSVKGRFTISRDNAKNTVYLQMNSLKPEDTAVYYCAVRSGYVTRRYDYWGQGTQVTVSS,low polyreactivity
10,QVQLVESGGGLVQAGGSLRLSCAASGRTFQYNAMGWYRQAPGKERELVAAISSYGGSTYYADSVKGRFTISRDNAKNTVYLQMNSLKPEDTAVYYCNAYSQSWNFYGDGDDWGQGTQVTVSS,low polyreactivity
11,QVQLVESGGGLVQAGGSLRLSCAASGSIFDPNAMGWYRKALGKERELVAAITYSGVDTYYADSVKGRFTISLDNAKNTVYLQMNILKPEDTAVYFCAGDNGRVGYDYWGQGTQVTVSS,low polyreactivity
12,QVQLVESGGGLVQAGGSLRLTCAASGRIFTTNAMGWYRQAPGKERELVAAITSGASTYADSVKGRVTISRDNAKNTGYLQMNSLKPEDTAVYAESTYNWYYYYWGQGTQVTVSS,low polyreactivity
13,QVQLVESGGGLVQAGGSLRLSCPASGSTFSPNAIGWSRQAPGKERELLDAINYSSGSTYYADSVKGRFTISRDNAKNSVYLQMNSLKPEDTAVYYCAVRSYWSSLWTLGDYWGQGTQVTVSS,low polyreactivity
14,QVQLVESGGGLVQAGGSLRLSCAASGRIFTGNAMGWYRQAPGKERELVATISTGGSTNYADSVKGRFTISRDNAKNTVYLQMNSLKPEDTAVYYCAADTYYGYIIHVEYWGQGTQVTVSS,low polyreactivity
15,QVQLVESGGGLVQAGGSLRLSCAASGRIFSAYAMGWYRQAPGKERELVAVISSGDSTNYADSVKGRFTISRDNAKNTVYLQMNSLKPEDTAVYYCNARGKHRYGFRSHVGNEYWGQVTQVTVSS,low polyreactivity
16,QVQLVESGGGLVQAGGSLRLSCAASGSTFGTYAMGWYRQAPGKERELVAAISWSGGSTYYADSVKGRFTISRDKAKNTVYLQMNSLKPEDTAVYWGQGTQVTVSS,low polyreactivity
